Experimental data from publication PMC6701106.
Positions of bridges follow the written chain, without caps; N, C: chain ends. No end group written: not given here.

Target: mAb3F3 (mouse)
Assay: SPR; Biacore T200; antibodies injected for 60 s at 10 μl/min in the active flow cell; BSA conjugated peptide antigens flowed at 1.25 to 20 nM

Kd [nM] | koff [s⁻¹] | kon [M⁻¹ s⁻¹] | Binder
406 | 0.0105 | 25900 | CGLRSFTRQARVVGGTDADEGEWP [Mat-Linear (human Prss14/ST14 aa604-627, linear 24mer)]
5.33 | 0.00342 | 641000 | CGLRSFTRQARVVGGTDADEGEWPC (disulfide 1-25; also: conjugated to BSA) [BSA conjugated Mat-Loop (human Prss14/ST14 aa604-627 plus C-terminal cysteine, circular 25mer)]
